Data as given in US20230220098A1, “THERAPEUTIC DRUG FOR POLYCYTHEMIA” (PERSEUS PROTEOMICS INC., priority 2019, published 2023).

Key:
hamster TfR = hamster TfR (Cricetulus griseus, UniProt Q07891); test: Cross-reactivity of TfR436 antibody with hamster TfR; type: binding
[1] = test system: PV patient-derived hematopoietic stem cells; test: EPO-independent erythroblast (BFU-E/CFU-E) colony assay; type: cell-based, human
Protocol: PV patient-derived hematopoietic stem cells are characterized in that BFU-E or CFU-E is formed in the cells even in the absence of erythropoietin (EPO). The activity of TfR436 to inhibit the formation of these colonies was examined.
The peripheral blood of a PV patient, which had been obtained by phlebotomy, was dispensed into three 50-mL centrifuge tubes in an amount of 20 mL each, and an equal amount of PBS (Gibco) was then added to each tube, followed by mixing. Thereafter, 15 mL of LymphoSep, Lymphocyte Separation Media (MP Biomedicals™) was dispensed into […] novel 50-mL centrifuge tubes, and the peripheral blood diluted with PBS was then slowly added thereto in an amount of 30 mL each, and the obtained mixture was then centrifuged at 1,500 rpm at room temperature for 30 minutes. After completion of the centrifugation, the plasma as a supernatant was removed, and a PBMC layer was collected by transfer pipetting. The collected PBMC layer was suspended in 20 mL of PBS+2% FBS (Gibco). The thus obtained suspension was further centrifuged at 1350 rpm at room temperature for 10 minutes, a supernatant was then removed, and the residue was then suspended in 1 to 5 mL of IMDM (Nacalai Tesque)+2% FBS. Using 0.2% Trypan Blue, the number of cells was counted, and the cells were adjusted to 2×10^6 cells/mL by addition of IMDM+2% FBS.
TfR436 and a human IgG1 antibody used as a negative control were each diluted with IMDM+2% FBS to an antibody concentration of […]. MethoCult™ H4534 Classic WithoutEPO (STEMCELL TECHNOLOGIES) was dispensed into seven 14-mL round bottle tubes in an amount of 3 mL each, and 300 jut of the above-prepared PBMC was then added thereto. Thereafter, an antibody-diluted solution or 3.3 μL of IMDM+2% FBS (control) was further added thereto, followed by full mixing. Thereafter, the reaction mixture was seeded on two 35-mm culture dishes in an amount of 1 mL each. This mixture was cultured at 37° C. in a 5% CO2 incubator for 14 days. After completion of the culture, the 35-mm culture dishes were observed under a microscope, and the number of the formed BFU-E or CFU-E colonies was then counted. The colony formation percentage with respect to the number of colonies obtained by a culture without addition of antibodies was then calculated.

erythroblast cells = test: Growth of normal erythroblast cells derived from CD34-positive cells; type: cell-based; details: FIG. 4
Protocol: Frozen CD34-positive cells (POIETICS) were thawed at 37° C., and were then suspended in IMDM (GIBCO)+30% FBS (Sigma-Aldrich) and 100 U/ml DNase (QIAGEN), and thereafter, the cells were […] according to the instructions of the manufacturer. Thereafter, the cells were adjusted to 5×10^4 cells/ml with a culture medium prepared by adding 2-ME (50 μmol/L) (GIBCO), hIL-3 (100 U/ml) (Milteny biotec), hEPO (4 U/ml) (Roche), and hSCF (50 ng/ml) (Peprotech) to an SF-03 medium (EIDIA Co., Ltd.). The resulting cells were dispensed into a 24-well plate in an amount of 1 ml/well, and were then cultured at 37° C. in a 5% CO2 incubator. Seven days later, the cells were seeded into a 96-well plate, and the antibody was then added thereto in an amount of 0.15 ng/mL to 10 μg/mL, followed by culturing the mixture. A well without addition of the antibody was used as a control. Ninety six hours later, each well was fully stirred by pipetting, and 150 μl of the cell lysate was transferred into a V-bottom plate. Then, 20 μI of the transferred cell lysate was absorbed by FACS Calibur, and the number of cells was then counted. The value obtained by multiplying the obtained cell number by 10 was set to be the number of cells per well, and the growth percentage of the cells at each concentration of the antibody was then calculated, while the mean value of the control was set to be 100%.

Sequence of hamster TfR (Q07891 whole entry): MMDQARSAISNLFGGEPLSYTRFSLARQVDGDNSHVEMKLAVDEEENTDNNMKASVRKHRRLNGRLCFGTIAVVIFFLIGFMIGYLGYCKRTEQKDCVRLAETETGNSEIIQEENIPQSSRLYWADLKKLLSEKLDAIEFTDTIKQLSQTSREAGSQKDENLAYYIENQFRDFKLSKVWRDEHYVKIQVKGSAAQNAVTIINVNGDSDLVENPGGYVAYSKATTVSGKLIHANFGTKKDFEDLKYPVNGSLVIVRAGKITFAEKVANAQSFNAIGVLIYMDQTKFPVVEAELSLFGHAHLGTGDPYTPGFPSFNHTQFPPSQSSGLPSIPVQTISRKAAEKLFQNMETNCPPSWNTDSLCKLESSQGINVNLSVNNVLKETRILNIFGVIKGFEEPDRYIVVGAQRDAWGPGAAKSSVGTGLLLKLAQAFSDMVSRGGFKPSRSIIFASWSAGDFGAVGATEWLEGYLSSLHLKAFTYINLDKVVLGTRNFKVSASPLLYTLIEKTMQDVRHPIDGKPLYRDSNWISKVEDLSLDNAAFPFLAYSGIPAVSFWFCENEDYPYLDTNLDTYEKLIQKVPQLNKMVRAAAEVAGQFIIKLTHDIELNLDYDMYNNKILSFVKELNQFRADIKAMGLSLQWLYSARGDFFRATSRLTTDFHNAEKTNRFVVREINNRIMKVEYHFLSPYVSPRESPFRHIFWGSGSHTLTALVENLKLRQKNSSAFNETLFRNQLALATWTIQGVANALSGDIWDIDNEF

B1: TfR436: anti-human transferrin receptor antibody, VH SEQ ID NO: 7 and VL SEQ ID NO: 8, described in WO2014/073641; called PPMX-T003 in Tables 3 and 4 (antibody, listed as Homo sapiens, V domains shown)
VH: DVQLVQSGGGVVQPGRSLRLSCAASGFPFKSYGMHWVRQAPGKGLEWVAVISYDGSNKYYADSVKGRFTISRDNSKNTLYLQMNSLRGEDTAVYYCARDSNFWSGYYSPVDVWGQGTTVTVSS
VL: NFMLTQPHSVSESPGKTVTISCTRSSGSIASNSVQWYQQRPGSAPITVIYEDTQRPSGVPDRFSGSIDSSSNSASLTISGLQTEDEADYYCQSYDSAYHWVFGGGTKLAVL
Hamster TfR
  cross-reactivity with hamster TfR: exhibited cross-reactivity
[1]; 100 ng/mL or more, 14 days, without EPO
  formation of erythroblast colonies: almost completely inhibited
[1]; pt No. 1, 10 ng/mL
  colony formation percentage with respect to culture without addition of antibodies: 87.1%
[1]; pt No. 1, 100 ng/mL
  colony formation percentage with respect to culture without addition of antibodies: 0.0%
[1]; pt No. 1, 1000 ng/mL
  colony formation percentage with respect to culture without addition of antibodies: 0.0%
[1]; pt No. 2, 10 ng/mL
  colony formation percentage with respect to culture without addition of antibodies: 149.0%
[1]; pt No. 2, 100 ng/mL
  colony formation percentage with respect to culture without addition of antibodies: 2.1%
[1]; pt No. 2, 1000 ng/mL
  colony formation percentage with respect to culture without addition of antibodies: 0.0%
[1]; pt No. 3, 10 ng/mL
  colony formation percentage with respect to culture without addition of antibodies: 91.7%
[1]; pt No. 3, 100 ng/mL
  colony formation percentage with respect to culture without addition of antibodies: 0.0%
[1]; pt No. 3, 1000 ng/mL
  colony formation percentage with respect to culture without addition of antibodies: 0.0%
[1]; pt No. 7, 10 ng/mL
  colony formation percentage with respect to culture without addition of antibodies: 63.6%
[1]; pt No. 7, 100 ng/mL
  colony formation percentage with respect to culture without addition of antibodies: 0.0%
[1]; pt No. 7, 1000 ng/mL
  colony formation percentage with respect to culture without addition of antibodies: 0.0%
[1]; pt No. 9, 10 ng/mL
  colony formation percentage with respect to culture without addition of antibodies: 63.3%
[1]; pt No. 9, 100 ng/mL
  colony formation percentage with respect to culture without addition of antibodies: 0.0%
[1]; pt No. 9, 1000 ng/mL
  colony formation percentage with respect to culture without addition of antibodies: 1.0%
[1]; pt No. 11, 10 ng/mL
  colony formation percentage with respect to culture without addition of antibodies: 80.8%
[1]; pt No. 11, 100 ng/mL
  colony formation percentage with respect to culture without addition of antibodies: 0.0%
[1]; pt No. 11, 1000 ng/mL
  colony formation percentage with respect to culture without addition of antibodies: 0.0%
[1]; pt No. 13, 10 ng/mL
  colony formation percentage with respect to culture without addition of antibodies: 35.2%
[1]; pt No. 13, 100 ng/mL
  colony formation percentage with respect to culture without addition of antibodies: 23.9%
[1]; pt No. 13, 1000 ng/mL
  colony formation percentage with respect to culture without addition of antibodies: 19.7%
[1]; pt No. 14, 10 ng/mL
  colony formation percentage with respect to culture without addition of antibodies: 68.9%
[1]; pt No. 14, 100 ng/mL
  colony formation percentage with respect to culture without addition of antibodies: 0.0%
[1]; pt No. 14, 1000 ng/mL
  colony formation percentage with respect to culture without addition of antibodies: 0.0%
[1]; pt No. 15, 10 ng/mL
  colony formation percentage with respect to culture without addition of antibodies: 6.7%
[1]; pt No. 15, 100 ng/mL
  colony formation percentage with respect to culture without addition of antibodies: 0.0%
[1]; pt No. 15, 1000 ng/mL
  colony formation percentage with respect to culture without addition of antibodies: 3.3%
[1]; pt No. 18, 10 ng/mL
  colony formation percentage with respect to culture without addition of antibodies: 47.6%
[1]; pt No. 18, 100 ng/mL
  colony formation percentage with respect to culture without addition of antibodies: 0.0%
[1]; pt No. 18, 1000 ng/mL
  colony formation percentage with respect to culture without addition of antibodies: 0.0%
[1]; pt No. 20, 10 ng/mL
  colony formation percentage with respect to culture without addition of antibodies: 143.8%
[1]; pt No. 20, 100 ng/mL
  colony formation percentage with respect to culture without addition of antibodies: 0.0%
[1]; pt No. 20, 1000 ng/mL
  colony formation percentage with respect to culture without addition of antibodies: 0.0%
Erythroblast cells; 0.15 ng/mL to 10 μg/mL, 96 hours
  growth of erythroblast cells: suppressed the growth
Erythroblast cells; 96 hours culture
  GI50: 0.125 µg/mL
